Where two headings read alike, the source gives them in different places. Values belong to the binder of their own block, whether it stands above or below them.
Experiments:
[1] = molecular target: T1, human CD40-Fc protein (amino acid residue 21-193 of SEQ ID NO: 67 linked to N-terminus of amino acid residue … (human, biotin-labeled in the capture ELISA and in the benchmark blocking ELISA; unlabeled when coated in the ligand blocking ELISA); experiment: capture ELISA; antibody captured, biotin-labeled human CD40-Fc in solution
T1 construct: also called biotin-labeled human CD40-Fc; human CD40-Fc-biotin
Protocol: (§1) Plates were washed 4 times with wash buffer (PBS+0.05% Tween-20, PBST) and then blocked with 200 μl/well blocking buffer (5% w/v non-fatty milk in PBST) for 2 hours at 37° C. […] After a final wash, plates were incubated with 100 μl/well ELISA substrate TMB (Innoreagents, Cat # TMB-S-002). The reaction was stopped in 15 minutes at 25° C. with 50 μl/well 1M H₂SO₄, and the absorbance was read at 450 nm and plotted against antibody concentration. Data were analyzed using Graphpad Prism software and EC₅₀ values were reported.

[2] = molecular target: T2, full length human CD40 (uniprot # P25942-1) on the membrane of 293T-CD40 cells (human, UniProt P25942 21-277); experiment: flow cytometry on 293T-CD40 cells
T2 construct: also called cell surface CD40
Protocol: (§2) 2×10⁵ cells per well in 96 well-plates were incubated with the mouse anti-CD40 antibodies or the controls of various concentrations in FACS buffer for 40 minutes on ice. […] Following an incubation of 40 minutes at 4° C. in dark, cells were washed three times and resuspended in FACS buffer. Fluorescence was measured using a Becton Dickinson FACS Canto II-HTS equipment and plotted against antibody concentration.

[3] = molecular target: T2, full length human CD40 (uniprot # …); experiment: flow cytometry on 293T-CD40 cells, PE-labeled secondary antibody, MFI
Protocol: as §2

[4] = molecular target: T1, human CD40-Fc protein (amino acid …); experiment: competitive ELISA; coated human CD40-Fc, competitor biotin human CD40L-his
Protocol: Briefly, human CD40-Fc proteins (amino acid residue 21-193 of SEQ ID NO: 67 linked to N-terminus of amino acid residue 99-330 of SEQ ID NO.: 24) were coated on 96-well micro plates at 2 μg/mL in coating buffer (PBS) and incubated overnight at 4° C. The next day, plates were washed with wash buffer (PBS+0.05% Tween-20, PBST), and blocked with 5% w/v non-fatty milk in PBST for 2 hours at 37° C. Plates were then washed again using wash buffer.
(§3) Serially diluted the mouse anti-CD40 antibodies of the present invention or the controls (starting at 200 nM with a four-fold serial dilution) in 2.5% w/v non-fatty milk in PBST were prepared to the plates and incubated with the human CD40-Fc proteins at room temperature for 40 minutes. […] Plates were washed again. 100 μl/well of streptavidin conjugated HRP was added and incubated for 40 minutes at 37° C. Plates were washed again using wash buffer. Finally, TMB was added and the reaction was stopped using 1M H₂SO₄, and the absorbance was read at 450 nm. Data were analyzed using Graphpad Prism software and IC₅₀ values were reported.

[5] = molecular target: T2, full length human CD40 (uniprot # …); experiment: cell-based or functional assay
[6] = molecular target: T1, human CD40-Fc protein (amino acid …); experiment: competitive ELISA; biotin human CD40-Fc in solution, competitor coated BM2
Protocol: (§4) The ability of the mouse anti-CD40 antibodies of the present invention to block the binding of the Benchmark to human CD40 was measured using a competitive ELISA assay. […] The next day, plates were washed with wash buffer, and blocked with 5% w/v non-fatty milk in PBST for 2 hours at 37° C. Plates were then washed again using wash buffer. […] After incubation at 37° C. for 40 minutes, plates were washed 4 times using wash buffer. Then streptavidin conjugated HRP was added and incubated for 40 minutes at 37° C. to detect biotin-labeled human CD40-Fc bound to plates. Plates were washed again using wash buffer. Finally, TMB was added and the reaction was stopped using 1M H₂SO₄, and the absorbance was read at 450 nm. Data were analyzed using Graphpad Prism software and IC₅₀ values were reported.

[7] = molecular target: T2, full length human CD40 (uniprot # …); experiment: cell-based or functional assay; remark: listed apart in the source
[8] = molecular target: T1, human CD40-Fc protein (amino acid …); experiment: benchmark blocking ELISA: BM2 (Selicrelumab) coated as competitor, antibody titrated in biotin-labeled human CD40-Fc solution, streptavidin-HRP, OD(450-630)
Protocol: as §4

[9] = molecular target: T1, human CD40-Fc protein (amino acid …); experiment: capture ELISA; antibody captured, biotin-labeled human CD40-Fc in solution; remark: listed apart in the source
Protocol: as §1

[10] = molecular target: T1, human CD40-Fc protein (amino acid …); experiment: competitive ELISA; coated human CD40-Fc, competitor biotin human CD40L-his; remark: listed apart in the source
Protocol: as §3

[11] = molecular target: T2, full length human CD40 (uniprot # …); experiment: flow cytometry on 293T-CD40 cells, PE goat anti-human IgG Fc-gamma secondary antibody, MFI
Protocol: Following an incubation of 40 minutes at 4° C. in dark, cells were washed three times and resuspended in FACS buffer. Fluorescence was measured using a Becton Dickinson FACS Canto II-HTS equipment and plotted against antibody concentration.

[12] = molecular target: T3, Human CD40-his protein (Acro biosystems, Cat # CD0-H5228) (human, UniProt P25942 21-193); experiment: SPR, Biacore; antibody captured, human CD40-his flowed
T3 construct: Bought reagent; not shown: his tag
Excerpt: (§5) Briefly, goat anti-mouse IgG (GE healthcare, Cat # BR100838, Mouse Antibody Capture Kit) was covalently linked to a CM5 or a Protein G chip (carboxy methyl dextran coated chip) via primary amines, using a standard amine coupling kit provided by Biacore (GE healthcare, Pittsburgh, Pa., USA). Un-reacted moieties on the biosensor surface were blocked with ethanolamine. […] Then, human CD40-his (Acro biosystems, Cat # CD0-H5228) or cynomolgus monkey CD40-his protein (Acro biosystems, Cat # CD0-052H6) in HBS EP buffer (provided by Biacore) was flowed onto the chip at a flow rate of 30 μL/min. The antigen-antibody association kinetics was followed for 2 minutes and the dissociation kinetics was followed for 10 minutes. The association and dissociation curves were fit to a 1:1 Langmuir binding model using BIA evaluation software.

[13] = molecular target: T2, full length human CD40 (uniprot # …); experiment: flow cytometry on 293T-CD40 cells; remark: listed apart in the source
Protocol: as §2

[14] = molecular target: T4, cynomolgus monkey CD40-his protein (Acro biosystems, Cat # CD0-052H6) (cynomolgus monkey, UniProt G7PG38 21-193); experiment: SPR, Biacore; cynomolgus CD40-his
T4 construct: Bought reagent; also called Cynomolgus CD40-his
Excerpt: as §5

[15] = molecular target: T1, human CD40-Fc protein (amino acid …); experiment: capture ELISA (antibody captured on coated goat anti-human IgG F(ab')2, biotin-labeled human CD40-Fc in solution, streptavidin-HRP, OD(450-630))
[16] = molecular target: T3, Human CD40-his protein (Acro …); experiment: SPR, Biacore; human CD40-his
Excerpt: as §5

[17] = molecular target: T1, human CD40-Fc protein (amino acid …); experiment: ligand blocking ELISA: human CD40-Fc coated, antibody titrated, then biotin-labeled human CD40L-his (blocked ligand), streptavidin-HRP, OD(450-630)
Protocol: as §3

EC50 [1]: 47.1 nM | EC50 [2]: 2.54 nM | EC50 (read off the curve) [3]: ~3 nM | IC50 [4]: 315 nM | Cell-based Reporter assay (EC50, nM) [5]: 6.36 nM | IC50 [6]: 4.76 nM
B1: mouse anti-CD40 monoclonal antibody 1B2 (antibody, V domains shown)
VH: EVQLQQSGPELVKPGASVKMSCKASGYTFTDYVMHWVKQKPGQGLECIGYINPYNDGTKYNEKFKGKATLTSDKSSSAAYLELSSLTSEDSAVYYCARGFLRESWFGYWGQGTLVTVSA
VL: DVLMTQTPLSLPVSLGDQASISCRSSQNIVHSNGNTYLDWYLQKPGQSPKLLIYKVSNRFSGVPDRFSGSGSGTDFTLKINRVEAEDLGVYYCFQGSHVPPTFGAGTKLELK
notes: Purified from hybridoma supernatant; also called Mouse 1B2

cell based functional assay (EC50, nM) [7]: 4.25 nM | IC50 (read off the curve) [8]: ~0.02 µg/mL | EC50 [9]: 0.248 nM | IC50 [10]: 3 nM | EC50 (read off the curve) [11]: ~0.3 µg/mL | Kd [12]: 11.9 nM | koff [12]: 0.00968 s⁻¹ | kon [12]: 814000 M⁻¹ s⁻¹ | EC50 [13]: 1.85 nM | Kd [14]: 4.04 nM | EC50 (read off the curve) [15]: ~0.04 µg/mL | Kd [16]: 11.3 nM | IC50 (read off the curve) [17]: ~0.5 µg/mL | IC50 [6]: 0.111 nM
B2: humanized antibody huC1C1-V7 (antibody, human IgG1, kappa, V domains shown)
VH: EVQLVESGGGVVQPGRSLRLSCAASGFTFSNYGMSWVRQAPGKGLEWVASISSGGDDTYYPDNVKGRFTISRDNSKNTLYLQMNSLRAEDTAVYYCTRAGGKAMDYWGQGTLVTVSS
VL: EIVLTQSPATLSLSPGERATLSCRASQSIRDNLHWYQQKPGQAPRLLIYYASQSISGIPARFSGSGSGTDFTLTISSLEPEDFAVYYCQQFNSWPLTFGQGTKVEIKR
notes: Human IgG1/kappa; also called humanized C1C1-V7
